In the Human Domainome abundance scans (Beltran et al. 2025):
± gives the uncertainty stated by the source.

B1: Nuclear receptor subfamily 1 group D member 2, residues 103 to 171; numbered along this chain, Q14995 (parent)
chain: CKVCGDVASGFHYGVHACEGCKGFFRRSIQQNIQYKKCLKNENCSIMRMNRNRCQQCRFKKCLSVGMSR

Variants of: B1
Experiment: abundance fitness (aPCA) (normalised: wild type 0, dead -1); higher = more abundant; growth selection in yeast, the domain comes from the species named
Conditions: Homo sapiens

Variant	abundance fitness
S45N	0.261 ± 0.19
S45P	-0.166 ± 0.13
S45R	-0.259 ± 0.051
S45K	-0.646 ± 0.44
S45A	-0.424 ± 0.14
S45G	-0.119 ± 0.11
S45L	-0.183 ± 0.1
S45I	-0.039 ± 0.14
S45V	-0.056 ± 0.1
S45W	-0.54 ± 0.18
S45T	-0.133 ± 0.13
S45M	0.156 ± 0.21
S45C	-0.03 ± 0.16
S45Y	-0.045 ± 0.14
R48Y	0.066 ± 0.25
R48K	-0.005 ± 0.13
R48F	-0.318 ± 0.41
R48E	0.125 ± 0.13
R48G	0.089 ± 0.079
R48S	-0.002 ± 0.069
R48W	-0.018 ± 0.1
R48I	0.117 ± 0.27
R48C	-0.417 ± 0.23
R48A	0.193 ± 0.09

Variant	abundance fitness
R48P	0.346 ± 0.082
R48D	0.402 ± 0.17
R48Q	0.134 ± 0.15
R48L	0.191 ± 0.084
R48T	-0.013 ± 0.11
R48V	0.241 ± 0.11
R48M	0.443 ± 0.22
E42Y	-0.674 ± 0.31
E42W	-0.642 ± 0.25
I46S	-0.353 ± 0.16
I46P	0.068 ± 0.15
I46R	-0.127 ± 0.092
I46W	-0.709 ± 0.26
I46T	-0.387 ± 0.22
I46K	-0.789 ± 0.38
I46L	-0.282 ± 0.15
I46M	-0.093 ± 0.26
I46A	-0.041 ± 0.13
I46H	-0.162 ± 0.22
I46F	-0.613 ± 0.088
I46E	-0.437 ± 0.24
I46Q	-0.39 ± 0.44
I46G	-0.258 ± 0.11
I46Y	0.082 ± 0.22

Variant	abundance fitness
I46N	-0.012 ± 0.22
I46V	0.123 ± 0.12
N50S	-0.349 ± 0.088
N50F	-0.107 ± 0.13
N50T	-0.121 ± 0.086
N50K	-0.346 ± 0.15
N50M	-0.61 ± 0.15
N50P	-0.45 ± 0.16
N50V	-0.306 ± 0.1
N50E	-0.193 ± 0.16
N50G	-0.383 ± 0.11
N50I	-0.415 ± 0.12
N50Q	0.032 ± 0.11
N50L	-0.45 ± 0.082
N50R	-0.359 ± 0.073
R53E	0.412 ± 0.085
R53V	0.186 ± 0.063
R53N	0.332 ± 0.15
R53L	0.228 ± 0.061
R53D	0.318 ± 0.12
R53M	0.098 ± 0.086
R53F	0.257 ± 0.2
R53H	0.029 ± 0.2
R53K	0.028 ± 0.097

Variant	abundance fitness
R53P	0.142 ± 0.074
R53G	0.103 ± 0.052
R53T	0.092 ± 0.08
R53A	0.248 ± 0.058
R53Q	0.364 ± 0.077
R53W	0.14 ± 0.068
R53C	0.3 ± 0.082
R51T	-0.214 ± 0.41
R51L	-0.059 ± 0.11
R51V	0.026 ± 0.14
R51S	-0.118 ± 0.12
R51G	-0.001 ± 0.15
R51M	-0.328 ± 0.45
R51A	-0.165 ± 0.12
R51Q	-0.063 ± 0.23
R51Y	-0.077 ± 0.21
R51K	0.044 ± 0.18
R51P	0.216 ± 0.16
R51I	-0.417 ± 0.39
R51E	-0.091 ± 0.36
R51W	-0.077 ± 0.26
M47L	-0.057 ± 0.099
M47A	0.006 ± 0.1
M47Y	-0.482 ± 0.24

Variant	abundance fitness
M47D	0.283 ± 0.11
M47K	-0.185 ± 0.25
M47I	-0.421 ± 0.24
M47T	0.307 ± 0.13
M47P	-0.237 ± 0.13
M47R	-0.062 ± 0.074
M47E	0.408 ± 0.15
M47V	-0.051 ± 0.047
M47H	0.07 ± 0.16
M47S	0.184 ± 0.083
N52W	-0.706 ± 0.4
N52T	-0.756 ± 0.44
N52L	-0.14 ± 0.18
N52A	0.394 ± 0.25
N52E	0.139 ± 0.26
N52F	-0.352 ± 0.33
N52I	-0.325 ± 0.29
N52M	-0.419 ± 0.23
N52S	-0.395 ± 0.46
N52R	-0.805 ± 0.28
N52P	-0.698 ± 0.46
N52V	-0.532 ± 0.34
Q55A	0.099 ± 0.077
C44Y	-0.183 ± 0.32

Variant	abundance fitness
N43W	-0.79 ± 0.31
N43M	-0.373 ± 0.15
N43R	-0.12 ± 0.068
N43V	-0.181 ± 0.091
N43G	-0.011 ± 0.071
N43A	0.01 ± 0.085
N43D	-0.222 ± 0.16
N43P	-0.472 ± 0.15
N43E	0.017 ± 0.086
N43F	-0.361 ± 0.19
N43T	-0.215 ± 0.12
N43C	-0.083 ± 0.093
N43L	-0.115 ± 0.078
N43K	-0.231 ± 0.12
N43Q	-0.061 ± 0.12
N43H	-0.37 ± 0.14
N43S	-0.317 ± 0.094
C54S	-0.688 ± 0.083
C54W	-1.09 ± 0.22
C54Y	-0.576 ± 0.16
C54T	-0.717 ± 0.12
C54P	-0.606 ± 0.21
C54M	-0.618 ± 0.14
C54F	-0.946 ± 0.19

Variant	abundance fitness
C54G	-0.847 ± 0.1
C54K	-0.134 ± 0.17
C54N	-0.722 ± 0.38
C54E	-0.77 ± 0.13
C54L	-0.749 ± 0.087
C54Q	-0.922 ± 0.21
C54I	-0.903 ± 0.28
C54A	-0.552 ± 0.095
C54D	-0.749 ± 0.23
C54R	-0.668 ± 0.079
M49R	-0.316 ± 0.11
M49F	0.195 ± 0.37
M49G	0.044 ± 0.12
M49P	-0.178 ± 0.25
M49S	0.076 ± 0.15
M49D	0.428 ± 0.11
M49E	0.114 ± 0.12
M49T	0.147 ± 0.18
M49I	0.56 ± 0.37
M49N	0.093 ± 0.36
M49Q	0.15 ± 0.18
M49Y	0.128 ± 0.37
M49K	0.12 ± 0.23
